From publication PMC2938230 (Nucleic Acids Research, 2010)

Target: T1, GAL4 DBD-hRARγ (human, UniProt P13631 1-454)
T1 sequence (looked up): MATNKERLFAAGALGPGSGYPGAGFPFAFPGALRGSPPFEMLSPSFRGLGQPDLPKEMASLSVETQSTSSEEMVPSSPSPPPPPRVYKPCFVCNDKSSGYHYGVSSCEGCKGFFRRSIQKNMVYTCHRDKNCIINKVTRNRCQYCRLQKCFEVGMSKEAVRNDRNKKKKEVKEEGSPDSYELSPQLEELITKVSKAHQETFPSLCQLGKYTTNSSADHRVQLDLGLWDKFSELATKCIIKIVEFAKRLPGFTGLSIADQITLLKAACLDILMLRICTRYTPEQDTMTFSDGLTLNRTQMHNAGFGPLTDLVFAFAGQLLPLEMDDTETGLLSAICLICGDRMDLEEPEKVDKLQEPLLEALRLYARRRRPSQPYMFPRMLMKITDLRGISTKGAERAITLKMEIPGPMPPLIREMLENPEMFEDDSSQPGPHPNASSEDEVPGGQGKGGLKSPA
Experiment: two-hybrid

B1: GAL4 AD-hADA3 (pACT2) (natural protein, human, UniProt O75528-1 1-432, looked up)
chain: MSELKDCPLQFHDFKSVDHLKVCPRYTAVLARSEDDGIGIEELDTLQLELETLLSSASRRLRVLEAETQILTDWQDKKGDRRFLKLGRDHELGAPPKHGKPKKQKLEGKAGHGPGPGPGRPKSKNLQPKIQEYEFTDDPIDVPRIPKNDAPNRFWASVEPYCADITSEEVRTLEELLKPPEDEAEHYKIPPLGKHYSQRWAQEDLLEEQKDGARAAAVADKKKGLMGPLTELDTKDVDALLKKSEAQHEQPEDGCPFGALTQRLLQALVEENIISPMEDSPIPDMSGKESGADGASTSPRNQNKPFSVPHTKSLESRIKEELIAQGLLESEDRPAEDSEDEVLAELRKRQAELKALSAHNRTKKHDLLRLAKEEVSRQELRQRVRMADNEVMDAFRKIMAARQKKRTPTKKEKDQAWKTLKERESILKLLDG
fold interaction relative to RARα: 3 fold
